Experiments:
ROR1 and MFRP = test: SPR; Biacore T100; biotinylated receptor ECD or hit protein captured on a streptavidin chip (~100-200 RU), non-biotinylated secreted ligand as analyte in twofold dilutions; HBS-P+ buffer; 1:1 Langmuir model or equilibrium fit
MFRP-ECD = target: T1, MFRP-ECD (human, UniProt Q9BY79 91-579, biotin (captured on the streptavidin chip)); test: as above; conditions: both partners purified
T1 construct: membrane Frizzled-related protein, human, extracellular domain; construct of the ECD is not described; also called membrane Frizzled (FZD)-related protein; source: Expi293F, purified (Ni-NTA, SEC)
T1 sequence (looked up): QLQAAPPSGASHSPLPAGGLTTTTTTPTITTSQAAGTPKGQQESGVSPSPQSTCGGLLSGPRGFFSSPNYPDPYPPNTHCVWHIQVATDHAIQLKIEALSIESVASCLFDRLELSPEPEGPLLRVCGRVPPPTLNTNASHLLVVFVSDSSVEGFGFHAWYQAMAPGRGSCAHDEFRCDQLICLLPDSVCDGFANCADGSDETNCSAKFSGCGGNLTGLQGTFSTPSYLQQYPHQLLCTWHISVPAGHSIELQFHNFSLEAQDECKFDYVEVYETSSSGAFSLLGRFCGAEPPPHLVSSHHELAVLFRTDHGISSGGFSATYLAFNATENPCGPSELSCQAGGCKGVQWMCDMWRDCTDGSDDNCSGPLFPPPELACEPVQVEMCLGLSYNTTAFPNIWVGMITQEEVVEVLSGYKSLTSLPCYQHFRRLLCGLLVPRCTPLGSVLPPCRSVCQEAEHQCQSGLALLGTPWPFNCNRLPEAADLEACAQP

ROR1-ECD = target: T2, ROR1-ECD (human, UniProt Q01973 30-406, biotin (captured on the streptavidin chip)); test: as above; conditions: both partners purified
T2 construct: ROR1, human, extracellular domain; construct of the ECD is not described; source: Expi293F, purified (Ni-NTA, SEC)

[1] = target: T3, MFRP-ECD (membrane Frizzled-related protein, extracellular domain) (human, UniProt Q9BY79 91-579, biotin (BirA biotinylation; captured on streptavidin chip)); test: SPR; Biacore T100; biotinylated ligand captured on a streptavidin (SA) Series S chip (~100-200 RU); non-biotinylated analyte in twofold dilutions in HBS-P+; 60 s injection at 30 ul/min, 240 s dissociation; regeneration 2 x 10 sec 2M MgCl2; KD from the fit at equilibrium (steady state); conditions: both partners purified
T3 construct: membrane Frizzled-related protein (MFRP), human, extracellular domain; source: Expi293F, purified (Ni-NTA, SEC), biotinylated in vitro with BirA
T3 sequence (looked up): T1 sequence (looked up)

[2] = target: T4, ROR1-ECD (transmembrane receptor tyrosine kinase ROR1, extracellular domain) (human, UniProt Q01973 30-406, biotin (BirA biotinylation; captured on streptavidin chip)); test: as above; conditions: both partners purified
T4 construct: receptor tyrosine kinase ROR1, human, extracellular domain; source: Expi293F, purified (Ni-NTA, SEC), biotinylated in vitro with BirA

[3] = target: T5, growth arrest specific 1 protein (GAS1) (human, UniProt P54826 40-317); test: as above; conditions: both partners purified
T5 construct: growth arrest specific 1 (GAS1), human; source: Expi293F, purified (Ni-NTA, SEC), not biotinylated (SPR analyte)
T5 sequence (looked up): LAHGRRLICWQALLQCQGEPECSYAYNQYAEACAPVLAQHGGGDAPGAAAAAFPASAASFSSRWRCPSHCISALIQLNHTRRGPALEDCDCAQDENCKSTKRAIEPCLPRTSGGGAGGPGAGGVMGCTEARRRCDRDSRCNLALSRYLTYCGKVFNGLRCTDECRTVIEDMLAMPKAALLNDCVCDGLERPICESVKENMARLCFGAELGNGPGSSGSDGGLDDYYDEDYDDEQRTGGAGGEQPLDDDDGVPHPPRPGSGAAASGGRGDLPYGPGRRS

[4] = target: the molecule itself; test: SPR; Biacore T100; biotinylated receptor ECD or hit protein captured on a streptavidin chip (~100-200 RU), non-biotinylated secreted ligand as analyte in twofold dilutions; HBS-P+ buffer; 1:1 Langmuir model or equilibrium fit

B1: pleiotrophin (ligand, human, UniProt P21246 33-168, looked up)
chain: GKKEKPEKKVKKSDCGEWQWSVCVPTSGDCGLGTREGTRTGAECKQTMKTQRCKIPCNWKKQFGAECKYQFQAWGECDLNTALKTRTGSLKRALHNAECQKTVTISKPCGKLTKPKPQAESKKKKKEGKKQEKMLD
modifications: biotin (biotinylated in vitro with BirA) where used on beads or captured on the chip
notes: pleiotrophin, human; also called PTN; source: Expi293F, purified (Ni-NTA, SEC); not shown: AviTag, C-terminal, kept
**Q.** How did the Kd (ROR1 and MFRP) turn out when B1 was run?
**A.** The Kd was 1000 to 2000 nM.

**Q.** Does B1 bind (MFRP-ECD)?
**A.** Result: binds

**Q.** Does B1 bind (ROR1-ECD)?
**A.** Result: binds

B2: pleiotrophin (PTN) (ligand, human, UniProt P21246 33-168, looked up)
chain: B1 chain
notes: pleiotrophin (PTN), human; source: Expi293F, purified (Ni-NTA, SEC), not biotinylated (SPR analyte)
**Q.** What does the source list for B2?
**A.** Kd [1]: 1220 nM; Kd [2]: 1660 nM

B3: PTPRA-ECD (receptor protein tyrosine phosphatase alpha, extracellular domain) (domain or fragment, human, UniProt P18433 20-151, looked up)
chain: NNATTVAPSVGITRLINSSTAEPVKEEAKTSNPTSSLTSLSVAPTFSPNITLGPTYLTTVNSSDSDNGTTRTASTNSIGITISPNGTWLPDNQFTDARTEPWEGNSSTAATTPETFPPSGNSDSKDRRDETP
modifications: biotin (BirA biotinylation; captured on streptavidin chip)
notes: receptor-type protein tyrosine phosphatase alpha (PTPRA, R4 subfamily), human, extracellular domain; source: Expi293F, purified (Ni-NTA, SEC), biotinylated in vitro with BirA
**Q.** Which Kd [3] does the source give for B3 here?
**A.** The Kd was 1130 nM.

B4: SMOC1 (ligand, human, UniProt Q9H4F8 27-434, looked up)
chain: HRTTGPRFLISDRDPQCNLHCSRTQPKPICASDGRSYESMCEYQRAKCRDPTLGVVHRGRCKDAGQSKCRLERAQALEQAKKPQEAVFVPECGEDGSFTQVQCHTYTGYCWCVTPDGKPISGSSVQNKTPVCSGSVTDKPLSQGNSGRKDDGSKPTPTMETQPVFDGDEITAPTLWIKHLVIKDSKLNNTNIRNSEKVYSCDQERQSALEEAQQNPREGIVIPECAPGGLYKPVQCHQSTGYCWCVLVDTGRPLPGTSTRYVMPSCESDARAKTTEADDPFKDRELPGCPEGKKMEFITSLLDALTTDMVQAINSAAPTGGGRFSEPDPSHTLEERVVHWYFSQLDSNSSNDINKREMKPFKRYVKKKAKPKKCARRFTDYCDLNKDKVISLPELKGCLGVSKEGRLV
modifications: biotin (biotinylated in vitro with BirA) where used on beads or captured on the chip
notes: SMOC1, human; also called SPARC-related ligand; source: Expi293F, purified (Ni-NTA, SEC); not shown: AviTag, C-terminal, kept
**Q.** Does B4 bind [4]?
**A.** Result: binds

— PMC9578707, “Identification of orphan ligand-receptor relationships using a cell-based CRISPRa enrichment screening platform” (eLife, 2022)
